Assay results taken from patent publication US20190010231A1 (Pieris, published 2019).

Assays:
[1] = biological target: T1, human LAG-3-His (LAG-3 with C-terminal polyhistidine tag, ACROBiosystems) (human, UniProt P18627 23-450); assay: ELISA: LAG-3-His coated, detection anti-Tlc antibody-HRP (an antibody without lipocalin part would not be seen by this detection; see Figure 3C for anti-Fc detection)
T1 construct: Bought protein; also called recombinant LAG-3-His
T1 sequence (looked up): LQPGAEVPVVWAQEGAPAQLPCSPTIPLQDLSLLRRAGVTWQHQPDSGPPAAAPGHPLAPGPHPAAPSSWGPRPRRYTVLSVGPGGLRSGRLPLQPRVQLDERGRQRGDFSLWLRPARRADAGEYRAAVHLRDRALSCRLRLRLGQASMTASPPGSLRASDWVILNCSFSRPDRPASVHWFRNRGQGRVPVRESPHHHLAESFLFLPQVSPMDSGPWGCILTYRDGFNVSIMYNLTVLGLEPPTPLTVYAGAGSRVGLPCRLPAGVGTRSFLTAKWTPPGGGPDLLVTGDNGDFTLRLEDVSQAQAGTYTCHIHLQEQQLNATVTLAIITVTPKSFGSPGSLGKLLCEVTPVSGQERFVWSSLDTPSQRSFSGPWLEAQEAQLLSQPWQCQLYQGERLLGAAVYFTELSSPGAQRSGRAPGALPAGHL

[2] = biological target: T2, human LAG-3-Fc fusion (human LAG-3 extracellular domain fused to human IgG1 Fc fragment, R&D Systems) (human, UniProt P18627 23-450, biotinylated in Example 5 (sites not given)); assay: dual-binding ELISA: PD-1-His coated, antibody titrated from 250 nM, then biotinylated huLAG-3-Fc 2 ug/mL, detection Extravidin-HRP, RFU
T2 construct: extracellular domain; also called huLAG-3-Fc; biotinylated human LAG-3-Fc; not shown: human IgG1 Fc fragment
T2 sequence (looked up): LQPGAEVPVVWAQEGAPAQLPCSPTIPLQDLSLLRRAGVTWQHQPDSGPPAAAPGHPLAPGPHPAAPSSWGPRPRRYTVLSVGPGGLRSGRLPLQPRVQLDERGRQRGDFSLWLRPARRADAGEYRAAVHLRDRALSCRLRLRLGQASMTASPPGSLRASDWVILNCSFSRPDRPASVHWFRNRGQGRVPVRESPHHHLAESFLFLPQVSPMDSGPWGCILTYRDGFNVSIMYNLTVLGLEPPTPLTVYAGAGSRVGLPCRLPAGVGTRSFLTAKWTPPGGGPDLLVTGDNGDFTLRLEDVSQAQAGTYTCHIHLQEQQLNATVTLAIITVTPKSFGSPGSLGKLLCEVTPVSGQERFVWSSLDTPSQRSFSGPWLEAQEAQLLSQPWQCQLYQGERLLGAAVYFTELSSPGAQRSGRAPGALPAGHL
Protocol: The plates were washed five times after each incubation step with 100 μL PBS-0.05% T. The plates were blocked with 2% BSA (w/v) in PBS-0.1% T for 1 h at room temperature and subsequently washed again. Different concentrations of the fusion polypeptides were added to the wells and incubated for 1 h at room temperature, followed by a wash step. […] After an additional wash step, fluorogenic HRP substrate (QuantaBlu, Thermo) was added to each well and the fluorescence intensity was detected using a fluorescence microplate reader.

- binding result [1]: no binding (tested: 250 nM)
- binding result [2]: no binding (tested: 250 nM)
B1: PD-1 specific benchmark antibody (SEQ ID NOs: 3 and 4) (antibody, human IgG4 S228P, kappa, V domains shown)
VH: QVQLVESGGGVVQPGRSLRLDCKASGITFSNSGMHWVRQAPGKGLEWVAVIWYDGSKRYYADSVKGRFTISRDNSKNTLFLQMNSLRAEDTAVYYCATNDDYWGQGTLVTVSS
VL: EIVLTQSPATLSLSPGERATLSCRASQSVSSYLAWYQQKPGQAPRLLIYDASNRATGIPARFSGSGSGTDFTLTISSLEPEDFAVYYCQQSSNWPRTFGQGTKVEIKR
notes: Engineered IgG4 backbone with the S228P mutation; also called PD-1-specific antibody
